Bridges are numbered along the chain shown (N, C = ends). Where no end group is shown, it is not given here.

For the experiment, the target named is T1, integrin α4 β1 binding to VCAM-1 (Homo sapiens, UniProt P05556+P13612).
T1 construct: endogenous in cells; host or cells: HL-60 cells (integrin α4β1); VCAM-IgG fusion made in house in transfected COS cells
Briefly: VCAM-1/α4 β1 Binding Assay (binding of labeled HL-60 cells to VCAM-IgG fusion protein on magnetic beads). Particulars: 10 min at room temperature. Format: cell-based. Here is the method:
Peptides were assayed for their ability to inhibit the binding of the integrin α4 β1 to VCAM. […] The assays are described below.
VCAM-1/α4 β1 Binding Assay
The assay involves determining the ability of cells that express α4 β1 to bind directly to purified VCAM. The integrin-expressing cell type used in this assay was HL-60, a human promyelocytic line.
An expression vector was designed such that a region of VCAM known to bind the integrin was expressed as a fusion protein with mouse IgG. A cDNA containing the two N-terminal domains of human VCAM was generated by the polymerase chain reaction (PCR) from a full length VCAM cDNA. Similarly, a cDNA containing the hinge, CH2 and CH3 regions of mouse IgG, was amplified by PCR from cDNA made from total RNA isolated from the hybridoma cell line 402C10. […]
HL-60 cells were fluorescently labeled with Calcein AM C-3099 (Molecular Probes) and resuspended in 1 ml of binding buffer (Hank's balanced salt solution, pH 7.4, 1.0 mM CaCl2, 1.0 mM MgCl2). […] The remaining bound cells were lysed in 50 mM Tris, pH 7.4, 5.0 mM EDTA, 1.0% NP-40 and quantitated by fluorimetry using a Millipore Cytofluor 2350 fluorimeter. Dose response curves were calculated and IC50 values determined. Alternatively, the percent adhesion was determined at a single peptide concentration for comparison among peptides.

T1 sequence (P13612 34-1032): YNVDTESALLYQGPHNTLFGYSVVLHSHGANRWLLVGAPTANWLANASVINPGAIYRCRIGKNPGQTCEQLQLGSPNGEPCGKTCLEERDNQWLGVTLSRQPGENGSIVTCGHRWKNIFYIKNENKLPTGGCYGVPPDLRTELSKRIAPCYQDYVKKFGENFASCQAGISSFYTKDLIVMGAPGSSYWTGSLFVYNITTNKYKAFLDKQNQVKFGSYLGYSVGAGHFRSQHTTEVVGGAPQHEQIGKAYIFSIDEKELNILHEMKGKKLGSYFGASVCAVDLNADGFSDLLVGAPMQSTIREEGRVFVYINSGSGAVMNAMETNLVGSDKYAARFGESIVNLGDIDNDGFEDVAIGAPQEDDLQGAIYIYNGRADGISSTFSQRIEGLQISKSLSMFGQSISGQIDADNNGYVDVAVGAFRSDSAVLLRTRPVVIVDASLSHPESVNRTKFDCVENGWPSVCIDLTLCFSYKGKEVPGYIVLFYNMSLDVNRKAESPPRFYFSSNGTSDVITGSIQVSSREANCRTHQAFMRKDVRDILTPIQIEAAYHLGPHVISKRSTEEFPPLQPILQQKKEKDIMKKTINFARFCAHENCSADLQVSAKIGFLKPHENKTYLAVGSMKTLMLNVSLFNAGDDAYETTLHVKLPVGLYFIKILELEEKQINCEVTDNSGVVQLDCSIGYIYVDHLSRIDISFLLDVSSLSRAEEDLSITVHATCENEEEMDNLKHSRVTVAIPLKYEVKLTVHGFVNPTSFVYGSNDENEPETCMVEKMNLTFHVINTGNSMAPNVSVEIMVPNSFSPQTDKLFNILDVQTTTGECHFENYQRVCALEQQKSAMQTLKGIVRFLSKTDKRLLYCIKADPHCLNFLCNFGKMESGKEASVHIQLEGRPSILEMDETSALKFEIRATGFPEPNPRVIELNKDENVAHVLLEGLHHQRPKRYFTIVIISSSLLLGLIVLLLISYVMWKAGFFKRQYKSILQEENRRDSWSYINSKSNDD
T1 sequence (P05556 21-798): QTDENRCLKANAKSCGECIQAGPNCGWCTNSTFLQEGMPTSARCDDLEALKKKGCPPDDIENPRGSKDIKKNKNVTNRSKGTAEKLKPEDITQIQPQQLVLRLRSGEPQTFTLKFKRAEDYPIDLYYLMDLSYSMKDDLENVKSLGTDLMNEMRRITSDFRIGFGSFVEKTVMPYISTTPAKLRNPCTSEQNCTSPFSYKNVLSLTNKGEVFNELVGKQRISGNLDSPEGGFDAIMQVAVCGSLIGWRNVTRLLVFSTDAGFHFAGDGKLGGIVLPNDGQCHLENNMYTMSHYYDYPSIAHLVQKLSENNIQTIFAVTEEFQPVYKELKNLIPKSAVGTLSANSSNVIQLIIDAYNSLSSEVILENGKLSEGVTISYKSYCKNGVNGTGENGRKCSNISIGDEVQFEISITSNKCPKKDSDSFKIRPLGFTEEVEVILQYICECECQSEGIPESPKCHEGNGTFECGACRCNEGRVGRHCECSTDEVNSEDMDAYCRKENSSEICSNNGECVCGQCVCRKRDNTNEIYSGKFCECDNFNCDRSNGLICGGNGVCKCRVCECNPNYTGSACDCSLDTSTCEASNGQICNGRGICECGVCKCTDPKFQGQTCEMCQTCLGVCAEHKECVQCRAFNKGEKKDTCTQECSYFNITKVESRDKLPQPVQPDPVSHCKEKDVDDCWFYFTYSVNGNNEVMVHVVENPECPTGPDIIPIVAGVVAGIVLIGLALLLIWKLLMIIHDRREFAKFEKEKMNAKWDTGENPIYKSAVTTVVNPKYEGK

Consider “Cys-Trp-Leu-Asp-Leu-Cys-acid (CWLDLC-OH; disulfide 1-6; not fully specified (N-terminus, bridges); printed as Cys-Trp-Leu-Asp-Leu-Cys-acid) [SEQ ID NO:28]”, for which the “concentration of peptide found to significantly inhibit the binding of α4 β1 integrin to VCAM-1” value is “less than 10 μM”.
For “Cys-Trp-Leu-Asp-Tyr-Cys-acid (CWLDYC-OH; disulfide 1-6; not fully specified (N-terminus, bridges); printed as Cys-Trp-Leu-Asp-Tyr-Cys-acid) [SEQ ID NO:29]”, the “concentration of peptide found to significantly inhibit the binding of α4 β1 integrin to VCAM-1” value is reported as “less than 10 μM”.

(Values after patent US6087330A, “Process to inhibit binding of the integrin α4 β1 to VCAM-1 or fibronectin and cyclic peptides therefor” (Texas Biotechnology Corporation, priority 1998, dated 2000).)
